Source: US20200088726A1

Biological target: ESO 9V WT-A*02:01 pMHC (human)
Test: BLI (OctetRED 384), pMHC immobilised on streptavidin biosensor, soluble 1G4 TCR in 1:2 dilution series from 24 µM; fit R² = 0.9992

For 1G4 TCR, the Kd was 5.12 µM.
